US20080166375A1

Target: urokinase-type plasminogen activator receptor (human) (UniProt Q03405)
Test: cell-based or functional assay

urokinase-type plasminogen activator receptor (human), sequence (Q03405 23-305): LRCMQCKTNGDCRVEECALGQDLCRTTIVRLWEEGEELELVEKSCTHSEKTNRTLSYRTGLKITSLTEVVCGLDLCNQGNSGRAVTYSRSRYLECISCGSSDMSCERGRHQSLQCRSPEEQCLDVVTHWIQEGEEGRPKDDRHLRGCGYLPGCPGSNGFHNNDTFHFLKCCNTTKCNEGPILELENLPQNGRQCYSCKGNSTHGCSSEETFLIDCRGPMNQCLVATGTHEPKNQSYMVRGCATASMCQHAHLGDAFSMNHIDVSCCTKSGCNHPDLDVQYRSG

Question: “DTAT (from UniProt P00588 33-422; P00749 21-155)” was tested. Which IC50, 3H-thymidine incorporation inhibition, HUV-EC, DTAT did it give?
Answer: 26.8 pM
